From patent US20030003563, “Method of using a crystal of the N-terminal domain of a signal transducer and activator of transcription” (published 2003)

Assays:
[1] = target: STAT-1alpha (Tyr-phosphorylated, wild type) (Homo sapiens, UniProt P42224 P42224:2-750); assay: EMSA; used to titrate active protein; details: tags: in vitro Tyr-phosphorylated with EGF-receptor kinase; chain copies: 4 (two dimers on tandem site; stated)
From the text: (§1) Gel shift experiments and determination of tetramer stability were done as described [Vinkemeier et al., EMBO J. 15:5616 (1996)] with an oligonucleotide containing two copies of the STAT recognition element from the c-fos gene [Wagner et al., EMBO J. 9:4477 (1990)] spaced by 10 base pairs (5′-[…]-3′). Both protein preparations (Tyr-phosphorylated wild type STAT-1α and W37A mutant) were titrated in gel shift experiments with an oligonucleotide containing a single M67 site (5′-[…]-3′) [Wagner et al., EMBO J. 9:4477 (1990)] to assure similar loading of active protein. […] The time necessary to reach equilibrium was assessed by EMSA [(Stone et al., in Jost, J. P. & Saluz, H. P. (eds.) A Laboratory Guide to In Vitro Studies of Protein-DNA Interactions BioMethods, vol.5:163-195 (1991)]. For all DNA fragments tested, equilibrium turned out to be fully established at the earliest timepoint that can be determined by this technique (30 sec). Therefore incubation periods of 5-15 minutes were chosen. Reaction products were loaded onto a 4% polyacrylamide gel (1.5 mm thick) containing 0.25× Tris-borate-EDTA which had been pre-run at 20V/cm for 2 hours at 4° C. Electrophoresis was continued for 60 minutes at 4° C. Gels were dried and exposed to X-ray film and quantitated by a Molecular Dynamics Phospholmager.

[2] = target: STAT-1alpha W37A (Tyr-phosphorylated) (Homo sapiens, UniProt P42224 P42224:2-750, W37A); assay: EMSA; used to titrate active protein; details: tags: C-terminal 6xHis; baculovirus insect cells; chain copies: 2 (dimer; stated)
From the text: as §1

[3] = target: STAT-1alpha wild type (transfected, U3A cells) (Homo sapiens, UniProt P42224 P42224:2-750); assay: cell_activity; IFN-gamma 5 ng/ml, 10 h, luciferase in U3A cells; details: tags: pcDNA3 expression
Procedure: FIG. 4B show the effect of STAT-1 W37A mutation on interferon-γ (IFN-γ) stimulated gene activation in vivo. U3A cells that are lacking STAT-1 [Miller et al., EMBO J. 12:4221 (1993)] were transfected with expression clones containing either wild type or mutant STAT-1 (see Methods of the EXAMPLE, below) along with a luciferase reporter containing a tandem STAT binding site as an enhancer. After stimulation with IFN-γ for 10 hours, luciferase expression was determined spectroscopically (represented as bars). Cells transfected with the wild type protein show an about 2-fold increase in luciferase expression. […] Each bar represents ten individual parallel experiments. Error bars denote standard deviation from the mean.
Transient transfections were performed on six well plates with 50% confluent U3A cells using the calcium phosphate method as instructed by the manufacturer (Stratagene) with the following modifications. Transfection reactions contained per well 4.5 μg of either wild type STAT-1α or the W37A mutant in plasmid pcDNA3 (Invitrogen), 4 μg luciferase reporter plasmid pLuc, and 0.4 μg β-galactosidase reporter plasmid (Stratagene).
The luciferase reporter contained in its BamH1 site as an enhancer element two tandemly arranged “weak” STAT-1 binding sites (5′-[…]-3′, binding sites underlined) from the human c-fos promoter. […]

Sequence of STAT-1alpha wild type (transfected, U3A cells) (P42224 2-750, one chain of several): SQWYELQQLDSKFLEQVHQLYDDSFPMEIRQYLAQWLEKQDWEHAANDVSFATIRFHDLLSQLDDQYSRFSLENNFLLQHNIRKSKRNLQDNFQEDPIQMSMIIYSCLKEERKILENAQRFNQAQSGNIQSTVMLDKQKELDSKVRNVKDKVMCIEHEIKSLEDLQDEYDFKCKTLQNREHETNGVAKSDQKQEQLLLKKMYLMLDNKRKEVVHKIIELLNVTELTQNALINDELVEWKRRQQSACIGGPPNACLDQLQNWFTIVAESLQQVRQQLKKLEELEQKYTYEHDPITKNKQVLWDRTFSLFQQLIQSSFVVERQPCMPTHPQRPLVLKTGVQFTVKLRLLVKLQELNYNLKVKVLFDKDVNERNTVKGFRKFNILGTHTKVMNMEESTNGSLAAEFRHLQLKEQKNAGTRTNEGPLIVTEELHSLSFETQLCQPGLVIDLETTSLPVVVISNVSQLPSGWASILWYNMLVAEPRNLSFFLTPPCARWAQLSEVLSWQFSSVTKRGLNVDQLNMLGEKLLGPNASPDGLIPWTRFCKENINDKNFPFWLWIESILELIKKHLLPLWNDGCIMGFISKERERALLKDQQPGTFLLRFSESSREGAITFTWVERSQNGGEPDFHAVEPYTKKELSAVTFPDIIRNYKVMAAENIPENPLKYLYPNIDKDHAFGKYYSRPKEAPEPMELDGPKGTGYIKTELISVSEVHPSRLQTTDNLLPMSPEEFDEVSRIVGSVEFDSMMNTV
Sequence of STAT-1alpha (Tyr-phosphorylated, wild type) (P42224 2-750, one chain of several): as above
Sequence of STAT-1alpha W37A (Tyr-phosphorylated) (P42224 2-750 W37A, one chain of several): as the sequence (P42224 2-750, one chain of several) above, with W36A counted along it

B1: single M67 site (dsDNA)
DNA 1: GCCGATTTCCCGTAAATCAT
DNA 2: ATGATTTACGGGAAATCGGC
- binding result [1]: binds
- binding result [2]: binds

B2: luciferase reporter enhancer with two weak STAT-1 sites (dsDNA)
DNA 1: GATCAGTTCCCGTCAATCATGATCCAGTTCCCGTCAATGATCCCCGGGATC
DNA 2: GATCCCGGGGATCATTGACGGGAACTGGATCATGATTGACGGGAACTGATC
- activity [3]: ~2 fold induction
